Patent US10501734B2, “Compositions and methods of use thereof for making polypeptides with many instances of nonstandard amino acids” (Yale University, priority 2014, dated 2019)
Positions count from the first letter of the chain named. Numbers in names are those of the source. Entries after “also recorded” stand apart in the source; their conditions may differ.

B1: pAcFRS.1.t1: pAcFRS variant A167D, R257G, SEQ ID NO: 5 (protein)
chain: MDEFEMIKRNTSEIISEEELREVLKKDEKSALIGFEPSGKIHLGHYLQIKKMIDLQNAGFDIIILLADLHAYLNQKGELDEIRKIGDYNKKVFEAMGLKAKYVYGSEFQLDKDYTLNVYRLALKTTLKRARRSMELIAREDENPKVAEVIYPIMQVNGCHYRGVDVDVGGMEQRKIHMLARELLPKKVVCIHNPVLTGLDGEGKMSSSKGNFIAVDDSPEEIRAKIKKAYCPAGVVEGNPIMEIAKYFLEYPLTIKGPEKFGGDLTVNSYEELESLFKNKELHPMRLKNAVAEELIKILEPIRKRL
B2: pAcFRS.2.t1: pAcFRS variant L65V, A167D, R257G, SEQ ID NO: 8 (protein)
chain: B1 chain with L65V
B3: pAzFRS.2.t1: pAcFRS variant E107T, F108Y, Q109M, R257G, SEQ ID NO: 14 (protein)
chain: B1 chain with E107T, F108Y, Q109M, D167A
B4: pAzFRS.1.t1: pAcFRS variant D158V, I159M, L162D, A167Y, R257G, SEQ ID NO: 11 (protein)
chain: MDEFEMIKRNTSEIISEEELREVLKKDEKSALIGFEPSGKIHLGHYLQIKKMIDLQNAGFDIIILLADLHAYLNQKGELDEIRKIGDYNKKVFEAMGLKAKYVYGSEFQLDKDYTLNVYRLALKTTLKRARRSMELIAREDENPKVAEVIYPIMQVNVMHYDGVDVYVGGMEQRKIHMLARELLPKKVVCIHNPVLTGLDGEGKMSSSKGNFIAVDDSPEEIRAKIKKAYCPAGVVEGNPIMMEIAKYFLEYPLTIKGPEKFGGDLTVNSYEELESLFKNKELHPMRLKNAVAEELIKILEPIRKRL

Key:
GFP(3TAG) = experiment: nsAA library screening, GFP(3TAG) fluorescence in 384 well plates; format: cell-based, E. coli; settings: GFP(3TAG) production in the presence of pAcF, pAzF and 236 other nsAAs
Description: (§1) Liquid cell cultures of strains harboring chromosomally integrated OTSs and GFP reporter plasmids were inoculated from frozen stocks and grown to confluence overnight. Cultures were then inoculated at 1:20 dilution in LBmin media supplemented with 30 μg/ml kanamycin. Strains were inoculated by addition of 1:20 confluent cell culture (grown overnight) and allowed to grow at 34° C. to an OD600 of 0.5-0.8 in a shaking plate incubator at 650 r.p.m (˜3 h). AARS expression was then induced by the addition of 0.2% arabinose, GFP expression was induced by the addition of 60 ng/ul anhydrotetracycline, and the appropriate nsAA was added to a concentration of 1 mM. Cells were incubated at 34° C. for an additional 16 h. Liquid cell cultures of strains harboring plasmid-based OTSs and GFP or ELP-GFP reporter plasmids were inoculated from frozen stocks and grown to confluence overnight. Cultures were then inoculated at 1:20 dilution in 2×YT media supplemented with 30 μg/ml kanamycin and 20 μg/ml chloramphenicol. […] Cells were allowed to grow at 34° C. to an OD600 of 0.5-0.8 in a shaking plate incubator at 650 r.p.m (˜3 h), reporter protein expression was then induced by the addition of 60 ng/ul anhydrotetracycline, and cells were incubated at 34° C. for an additional 16 h.
For 384 well plate-based assays, fluorescence and OD600 were directly measured following expression. For 96 well plate-based assays, cells were centrifuged at 4,000 g for 4 min. Supernatant medium was removed and cells were resuspended in PBS. This process was repeated twice with PBS. GFP fluorescence was measured on a Biotek spectrophotometric plate reader using excitation and emission wavelengths of 395 and 509 nm, respectively). Fluorescence signals were normalized by dividing the fluorescence counts by the OD600 reading. The nsAAs used in this study were purchased from Sigma-Aldrich (St. Louis, Mo.), Chemlmpex (Wood Dale, Ill.), and Bachem (Torrance, Calif.). Solutions of nsAAs (50 mM) were made in water or 50 mM NaOH; these stock solutions were diluted 50- or 100-fold (to 1 mM final concentration) into medium used for bacterial growth. […]

ELP(30TAG)-GFP = experiment: Intact cell GFP fluorescence, ELP(30TAG)-GFP production; format: cell-based, E. coli; settings: plasmid-based OTSs; panel of 14 nsAAs
Description: as §1
For 384 well plate-based assays, fluorescence and OD600 were directly measured following expression. For 96 well plate-based assays, cells were centrifuged at 4,000 g for 4 min. Supernatant medium was removed and cells were resuspended in PBS. This process was repeated twice with PBS. GFP fluorescence was measured on a Biotek spectrophotometric plate reader using excitation and emission wavelengths of 395 and 509 nm, respectively). Fluorescence signals were normalized by dividing the fluorescence counts by the OD600 reading. The nsAAs used in this study were purchased from Sigma-Aldrich (St. Louis, Mo.), Chemlmpex (Wood Dale, Ill.), and Bachem (Torrance, Calif.). Solutions of nsAAs (50 mM) were made in water or 50 mM NaOH; these stock solutions were diluted 50- or 100-fold (to 1 mM final concentration) into medium used for bacterial growth.

Molecule | nsAA specificity (polyspecificity) (GFP(3TAG)) | nsAA specificity in ELP(30TAG)-GFP production (ELP(30TAG)-GFP)
B1 | polyspecifity for at least pAcF, pAzF, StyA, 4IF, 4BrF, 4ClF, 4MeF, 4Cf3F, MeY, 4NO2F, 4BuF, BuY, 2NaA, PheF | 
B2 | polyspecifity for at least pAcF, pAzF, StyA, 4IF, 4BrF, 4ClF, 4MeF, 4Cf3F, MeY, 4NO2F, 4BuF, BuY, 2NaA, PheF | for pAcF over pAzF decreases when expressed on a multi-copy plasmid
B3 | polyspecific for at least pAcF, pAzF, StyA, 4IF, 4BrF, 4ClF, 4MeF, 4Cf3F, MeY, 4NO2F, 4BuF, BuY, 2NaA, PheF | 
B4 | specific for pAzF; also recorded: exceptional specificity toward pAzF with almost complete exclusion of any other nsAA | maintains stringent specificity for pAzF
